Here are results for one molecule from publication doi:10.1101/2024.05.21.594841 (bioRxiv, 2024).

The target in this assay is T1, Sed4p (S. cerevisiae, UniProt P25365 1-1065).
T1 sequence: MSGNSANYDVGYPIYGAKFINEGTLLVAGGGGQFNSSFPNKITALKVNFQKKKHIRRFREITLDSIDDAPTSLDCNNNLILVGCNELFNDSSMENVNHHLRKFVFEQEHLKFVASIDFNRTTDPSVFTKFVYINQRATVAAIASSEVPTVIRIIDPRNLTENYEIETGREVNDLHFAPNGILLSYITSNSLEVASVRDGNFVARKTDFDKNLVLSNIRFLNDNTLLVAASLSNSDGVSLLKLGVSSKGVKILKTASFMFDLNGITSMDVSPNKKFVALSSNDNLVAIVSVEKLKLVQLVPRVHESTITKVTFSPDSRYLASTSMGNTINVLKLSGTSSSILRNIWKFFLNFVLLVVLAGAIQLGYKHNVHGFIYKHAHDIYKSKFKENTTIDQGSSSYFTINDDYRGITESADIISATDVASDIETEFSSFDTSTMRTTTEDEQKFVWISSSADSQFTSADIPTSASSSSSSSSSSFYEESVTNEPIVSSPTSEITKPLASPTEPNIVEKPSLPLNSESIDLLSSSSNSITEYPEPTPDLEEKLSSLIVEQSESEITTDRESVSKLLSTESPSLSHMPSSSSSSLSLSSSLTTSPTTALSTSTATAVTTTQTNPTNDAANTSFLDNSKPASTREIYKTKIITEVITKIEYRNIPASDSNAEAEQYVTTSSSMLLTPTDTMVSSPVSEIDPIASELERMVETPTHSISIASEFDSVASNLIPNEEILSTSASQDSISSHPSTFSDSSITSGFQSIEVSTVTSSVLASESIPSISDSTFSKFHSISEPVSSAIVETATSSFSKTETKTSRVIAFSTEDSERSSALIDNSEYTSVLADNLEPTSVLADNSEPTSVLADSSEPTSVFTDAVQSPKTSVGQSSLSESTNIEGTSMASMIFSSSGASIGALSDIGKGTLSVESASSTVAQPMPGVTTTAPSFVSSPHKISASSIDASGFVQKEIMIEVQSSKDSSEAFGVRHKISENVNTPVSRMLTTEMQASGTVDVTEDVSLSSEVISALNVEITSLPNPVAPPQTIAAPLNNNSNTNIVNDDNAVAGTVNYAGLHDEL
As to the kind of experiment: split reporter.

B1: Lhs1p (natural protein)
chain: AVLGVDYGQQNIKAIVVSPQAPLELVLTPEAKRKEISGLSIKRLPGYGKDDPNGIERIYGSAVGSLATRFPQNTLLHLKPLLGKSLEDETTVTLYSKQHPGLEMVSTNRSTIAFLVDNVEYPLEELVAMNVQEIANRANSLLKDRDARTEDFVNKMSFTIPDFFDQHQRKALLDASSITTGIEETYLVSEGMSVAVNFVLKQRQFPPGEQQHYIVYDMGSGSIKASMFSILQPEDTTQPVTIEFEGYGYNPHLGGAKFTMDIGSLIENKFLETHPAIRTDELHANPKALAKINQAAEKAKLILSANSEASINIESLINDIDFRTSITRQEFEEFIADSLLDIVKPINDAVTKQFGGYGTNLPEINGVILAGGSSRIPIVQDQLIKLVSEEKVLRNVNADESAVNGVVMRGIKLSNSFKTKPLNVVDRSVNTYSFKLSNESELYDVFTRGSAYPNKTSILTNTTDSIPNNFTIDLFENGKLFETITVNSGAIKNSYSSDKCSSGVAYNITFDLSSDRLFSIQEVNCICQSENDIGNSKQIKNKGSRLAFTSEDVEIKRLSPSERSRLHEHIKLLDKQDKERFQFQENLNVLESNLYDARNLLMDDEVMQNGPKSQVEELSEMVKVYLDWLEDASFDTDPEDIVSRIREIGILKKKIELYMDSAKEPLNSQQFKGMLEEGHKLLQAIETHKNTVEEFLSQFETEFADTIDNVREEFKKIKQPAYVSKALSTWEETLTSFKNSISEIEKFLAKNLFGEDLREHLFEIKLQFDMYRTKLEEKLRLIKSGDESRLNEIKKLHLRNFRLQKRKEEKLKRKLEQEKSRNNNETESTVINSADDKTTIVNDKTTESNPSSEEDILHDEL
B1 came in with a normalized interacting score above 40%.
